The record followed here is paper PMC4750968, “A Splice Variant of Bardet-Biedl Syndrome 5 (BBS5) Protein that Is Selectively Expressed in Retina” (PLoS ONE, 2016).

Common to all, as to assay: pull-down; 6.6 uM I16C-Alexa546-ARR1 mixed with 0.1 uM BBS5L-GST, BBS5-GST or GST, overnight at 4°C; immunoprecipitated with anti-GST antibody on magnetic beads; fluorescence of the captured arrestin1 measured
Assay [1] deals with BBS5L-GST phosphorylated by protein kinase C (mouse).
In assay [2] the target is BBS5L-GST (splice variant of BBS5 in fusion with glutathione-S-transferase) (mouse).
Assay [3] concerns the target T1, I16C-Alexa546-ARR1 (I16C-substituted bovine arrestin1 labeled with AlexaFluor-546) (bovine, UniProt P08168 1-404, I16C, AlexaFluor-546 on the reactive sulfhydryl group generated by I16C).
T1 construct: arrestin1 (S-arrestin), bovine, with the substitution I16C; also called ARR1-Alexa546; fluorescently labeled arrestin1
The note with it: both partners purified.

T1 sequence (P08168 whole entry I16C): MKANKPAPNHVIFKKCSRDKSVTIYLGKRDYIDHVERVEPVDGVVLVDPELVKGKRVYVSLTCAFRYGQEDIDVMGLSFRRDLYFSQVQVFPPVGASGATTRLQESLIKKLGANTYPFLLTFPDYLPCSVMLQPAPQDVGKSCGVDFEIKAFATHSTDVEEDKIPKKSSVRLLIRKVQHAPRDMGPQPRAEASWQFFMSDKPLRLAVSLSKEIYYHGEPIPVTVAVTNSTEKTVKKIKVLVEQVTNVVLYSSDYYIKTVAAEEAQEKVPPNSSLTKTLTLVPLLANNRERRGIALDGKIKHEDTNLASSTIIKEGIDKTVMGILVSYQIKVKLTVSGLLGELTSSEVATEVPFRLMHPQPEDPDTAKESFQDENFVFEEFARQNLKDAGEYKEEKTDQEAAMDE

The molecule “I16C-Alexa546-ARR1 (I16C-substituted bovine arrestin1 labeled with AlexaFluor-546) (from UniProt P08168 1-404) (natural protein)” gave a percent reduction of arrestin1 pull-down against unphosphorylated BBS5L in assay [1] of 31%. Besides, the amount of arrestin1 bound relative to BBS5 in assay [2] is 0.5 fold of BBS5.

B1: BBS5-GST (Bardet-Biedl Syndrome 5 protein in fusion with glutathione-S-transferase) (natural protein, mouse, UniProt Q9CZQ9 1-341, looked up)
chain: MSVLDVLWEDRDVRFDVSSQQMKTRPGEVLIDCLDSIEDTKGNNGDRGRLLVTNLRIIWHSLALPRVNLSIGYNCILNITTRTANSKLRGQTEALYILTKCNTTRFEFIFTNLVPGSPRLFTSVIAVHRAYETSKMYRDFKLRSAVIQNKQLRLLPQEHVYDKINGVWNLSSDQGNLGTFFITNVRIVWHANMNDSFNVSIPYLQIRSIKIRDSKFGLALVIESSQQSGGYVLGFKIDPVEKLQESVKEINSLHKVYSASPIFGVNYEMEEKPQPLEALTVEQIQDDVEIDSDDHTDAFVAYFADGNKQQDREPVFSEELGLAIEKLKDGFTLQGLWEVMS
notes: BBS5, mouse; open-reading frame amplified from murine retinal cDNA; cDNA for His-tagged BBS5 was cloned into pGEX-4T-1 at the EcoRI site, fused to the C-terminus of GST; not shown: GST, N-terminal, kept
On to B1, for which the binding result in assay [3] was “binds”.
